Data published in publication PMC7529888 (Nature, 2020).

Assays:
[1] = target: PARP2 (UniProt Q9UGN5-2 1-570); experiment: EMSA
[2] = target: PARP2 (human (from the printed UniProt …, UniProt Q9UGN5-2 1-570)); experiment: cryo-EM structure

Binder | binding result [1] | binding result [2]
TCGCGGCAGCTGGTGCTGCCGCGA (structured_DNA, 5' phosphate) [hairpin DNA 5'P] | binds | –
HPF1 (natural protein) MVGGGGKRRPGGEGPQCEKTTDVKKSKFCEADVSSDLRKEVENHYKLSLPEDFYHFWKFCEELDPEKPSDSLSASLGLQLVGPYDILAGKHKTKKKSTGLNFNLHWRFYYDPPEFQTIIIGDNKTQYHMGYFRDSPDEFPVYVGINEAKKNCIIVPNGDNVFAAVKLFLTKKLREITDKKKINLLKNIDEKLTEAARELGYSLEQRTVKMKQRDKKVVTKTFHGAGLVVPVDKNDVGYRELPETDADLKRICKTIVEAASDEERLKAFAPIQEMMTFVQFANDECDYGMGLELGMDLFCYGSHYFHKVAGQLLPLAYNLLKRNLFAEIIEEHLANRSQENIDQLAA | – | binds
